Read-outs that look alike come from different tables or passages of the source.
Measured: enzymatic_activity

VCP/p97: 3D (S13D, S282D, T761D) phosphomimetic
increases: phosphorylation at S13 | phosphorylation at S282 | phosphorylation at T761

From paper PMC6859904
